# Measured values reported in patent US20240270841A1.
# Biological target: LILRB1 expressed on the surface of human natural killer cell KHYG-1 (human) (UniProt Q8NHL6)
# Assay: flow cytometry (iQue) on KHYG-1 NK cells, antibody 50 ug/mL
# Chain of LILRB1 expressed on the surface of human natural killer cell KHYG-1 (human) (Q8NHL6 24-650): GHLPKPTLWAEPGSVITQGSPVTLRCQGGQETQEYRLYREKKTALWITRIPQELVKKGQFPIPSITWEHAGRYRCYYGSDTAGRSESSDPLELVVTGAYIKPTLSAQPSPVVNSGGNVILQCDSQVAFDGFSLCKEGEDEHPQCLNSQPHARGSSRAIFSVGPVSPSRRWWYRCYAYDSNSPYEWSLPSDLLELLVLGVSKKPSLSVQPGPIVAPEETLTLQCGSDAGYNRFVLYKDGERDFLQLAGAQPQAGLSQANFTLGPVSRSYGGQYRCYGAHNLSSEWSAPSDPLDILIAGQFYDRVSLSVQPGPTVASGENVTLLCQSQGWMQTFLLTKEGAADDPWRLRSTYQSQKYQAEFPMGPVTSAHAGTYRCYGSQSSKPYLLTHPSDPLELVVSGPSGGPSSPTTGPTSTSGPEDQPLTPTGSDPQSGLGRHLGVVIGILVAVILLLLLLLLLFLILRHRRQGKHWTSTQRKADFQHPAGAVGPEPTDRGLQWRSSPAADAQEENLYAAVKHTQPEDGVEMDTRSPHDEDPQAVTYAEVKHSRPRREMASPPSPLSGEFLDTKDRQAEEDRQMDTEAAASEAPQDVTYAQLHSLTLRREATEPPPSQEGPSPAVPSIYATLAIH
substance,measurement,value
human IgG4 isotype control antibody (Biolegend),% of population 2,2.95%
same,Mean Fluorescence Intensity,143000
